± gives the uncertainty stated by the source.
Test: self-splicing fitness, log relative to wild type (ln ratio); higher = more splicing; Tetrahymena group I intron in knt gene, E. coli kanamycin selection, DiMSum; sequences stand for … in CUCUCU…GGAGGGAAAAGUUAUCAGGCAUGCACCUGGUAGCUAGUCUUUAAACCAAUAGAUUGCAUCGGUUUAAAAGGCAAGACCGUCAAAUUGCGGGAAAGGGGUCAACAGCCGUUCAGUACCAAGUCUCAGGGGAAACUUUGAGAUGGCCUUGCAAAGGGUAUGGUAAUAAGCUGACGGACAUGGUCCUAACCACGCAGCCAAGUCCUAAGUCAACAGAUCUUCUGUUGAUAUGGAUGCAGUUCACAGACUAAAUGUCGGUCGGGGAAGAUGUAUUCUUCUCAUAAGAUAUAGUCGGACCUCUCCUUAAUGGGAGCUAGCGGAUGAAGUGAUGCAACACUGGAGCCGCUGGGAACUAAUUUGUAUGCGAAAGUAUAUUGAUUAGUUUUGGAGUACUCGUGGUCG
Summary of the method: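 DiMSum derived fitness as the error-weighted combination of fold changes across replicates, kanamycin versus no kanamycin, normalised to wild type. E. coli BL21(DE3) held the library, which randomised all eight P1ex-region intron nucleotides within the knt kanamycin-resistance gene on pET-22b(+). Six replicate transformations grew overnight at 37°C or 30°C on LB agar with or without 25 μg/mL kanamycin, also containing 100 μg/mL carbenicillin, 50 μM IPTG and 0.2% rhamnose, and pooled colonies were amplicon-sequenced on an Illumina HiSeq 2500.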

Row | Sequence | self-splicing fitness (ln) (30 °C) | self-splicing fitness (ln) (37 °C)
1 | GAGUAGCAAUAUUACGUGAA | -2.5 ± 0.16 | -1.95 ± 0.15
2 | GAUAAGCAAUAUUACGUAGU | -2.09 ± 0.083 | -0.957 ± 0.091
3 | CCUAAGCAAUAUUACGACAA | -3.28 ± 0.22 | -2.54 ± 0.2
4 | AUCAAGCAAUAUUACGCGUC | -3.45 ± 0.23 | -1.41 ± 0.16
5 | AUCAAGCAAUAUUACGUUGC | -3.84 ± 0.18 | -2 ± 0.15
6 | GACUAGCAAUAUUACGCUAA | -1.08 ± 0.12 | -0.983 ± 0.13
7 | UGCGAGCAAUAUUACGGCUC | -2.91 ± 0.31 | -3.21 ± 0.41
8 | AUUUAGCAAUAUUACGCAUU | -1.7 ± 0.11 | -0.617 ± 0.13
9 | GUCGAGCAAUAUUACGCAGG |  | -3.05 ± 0.38
10 | UCCCAGCAAUAUUACGACUA | -2.12 ± 0.15 | -1.15 ± 0.15
11 | CUCCAGCAAUAUUACGCCGU | -3.6 ± 0.3 | -3.11 ± 0.35
12 | AAGAAGCAAUAUUACGAUAG | -3.6 ± 0.28 | -1.87 ± 0.2
13 | UCGCAGCAAUAUUACGUCCC | -4.28 ± 0.32 | -2.97 ± 0.3
14 | GUUCAGCAAUAUUACGCAGC | -3.43 ± 0.29 | -1.1 ± 0.2
15 | GGUCAGCAAUAUUACGCUAA | -1.1 ± 0.095 | 0.512 ± 0.13
16 | CACUAGCAAUAUUACGUAAC | -3.68 ± 0.27 | -1.88 ± 0.24
17 | ACAAAGCAAUAUUACGUCUC | -4.03 ± 0.18 | -2.09 ± 0.14
18 | CCCAAGCAAUAUUACGUUAG | -4.82 ± 0.24 | -3.02 ± 0.22
19 | CCAUAGCAAUAUUACGAGGG | -3.56 ± 0.15 | -2.25 ± 0.19
20 | UAUGAGCAAUAUUACGGUUC | -3.43 ± 0.19 | -3.82 ± 0.46

Row | Sequence | self-splicing fitness (ln) (30 °C) | self-splicing fitness (ln) (37 °C)
21 | UGGUAGCAAUAUUACGGGAU | -3.14 ± 0.36 | -2.32 ± 0.28
22 | CGGCAGCAAUAUUACGCCAA | -1.61 ± 0.15 | -0.921 ± 0.13
23 | AGUCAGCAAUAUUACGCGGC | -3.02 ± 0.29 | 
24 | GGCCAGCAAUAUUACGUGCG | -1.17 ± 0.06 | -0.564 ± 0.079
25 | GAGAAGCAAUAUUACGCCUA | -0.659 ± 0.15 | -1.03 ± 0.14
26 | CGGGAGCAAUAUUACGGUUC | -3.39 ± 0.25 | -1.95 ± 0.35
27 | CGAUAGCAAUAUUACGAUGG | -0.196 ± 0.12 | -0.185 ± 0.2
28 | CCAUAGCAAUAUUACGCUUC |  | -2.24 ± 0.49
29 | GUUAAGCAAUAUUACGUGAC | -1.93 ± 0.24 | -2.56 ± 0.37
30 | AGUUAGCAAUAUUACGUGUC | -2.09 ± 0.33 | -1.42 ± 0.36
31 | UGCAAGCAAUAUUACGGCUC | -1.8 ± 0.11 | -1.01 ± 0.15
32 | GCGGAGCAAUAUUACGCUGG |  | -2.1 ± 0.4
33 | GGCAAGCAAUAUUACGUCUG | -3.13 ± 0.18 | -1.09 ± 0.094
34 | CAUGAGCAAUAUUACGGGUG | -3.68 ± 0.19 | -2.43 ± 0.13
35 | UGCAAGCAAUAUUACGCCUG | -2.3 ± 0.13 | -2.5 ± 0.25
36 | AUUGAGCAAUAUUACGCACA | -1.81 ± 0.16 | -1.41 ± 0.24
37 | ACGCAGCAAUAUUACGUCCA | -1.28 ± 0.11 | -1.13 ± 0.1
38 | GCAAAGCAAUAUUACGCGCC | -2.2 ± 0.26 | -2.09 ± 0.36
39 | UAGUAGCAAUAUUACGUUGC |  | -1.53 ± 0.44

Source: the supplement of paper PMC7877785
